From patent publication US20230212319A1, “NOVEL ANTIGEN BINDING DOMAINS AND SYNTHETIC ANTIGEN RECEPTORS INCORPORATING THE SAME” (University of Southern California, priority 2020, published 2023)

B1: 22148 (protein)
chain: MALPVTALLLPLALLLHAARPACEVQLLESGGGLIQPGGSLRLSCAASGFTFSSHAMTWVRQAPGKGLEWVSAISGSGDYTHYADSVKGRFTISRDNSKNTVYLQMNSLRAEDSAVYYCAKDEDGGSLLGHRGQGTLVTVSSGTGGGGSGGGGSGGGGSEFDVVMTQSPSSLSASVGDRVTITCMASEDIYIRLAWYQQKPGNAPKLLIYAATSLETGVPSRFSGSGSGTDFTLTISSLQPEDFATYYCQQYWSSPWTFGGGTKVEIKLEGQPKANPTVTLFPPSSEELQANKATLVCLISDFYPGAVTVAWKADGSPVKAGVETTKPSKQSNNKYAASSYLSLTPEQWKSHRSYSCQVTHEGSTVEKTVAPTECSPIKTDVITMDPKDNCSKDANDTLLLQLTNTSAYYMYLLLLLKSVVYFAIITCCLLRRTAFCCNGEKSRAKRSGSGATNFSLLKQAGDVEENPGPTSATMDWIWRILFLVGAATGAHSGPQVQLQESGGGLAQAGGSLRLSCAASGRTFSMGWFRQAPGKEREFVAAITYSGGSPYYASSVRGRFTISRDNAKNTVYLQMNSLKPEDTAVYYCAANPTYGSDWNAENWGQGTQVTVSSGSGGGGSGGGGSGGGGSFEQVQLQESGPGLVKPSQTLSLTCTVSGYSITSDYTWNWIRQPPGNGLEWIGYITYSGSTSYNPSLKSRVLISVDTSKNQVSLKLSSVTAADTAVYYCARLGRRYTMDYWGQGTTVTVSSTRASTKGPSVFPLAPSSKSTSGGTAALGCLVKDYFPEPVTVSWNSGALTSGVHTFPAVLQSSGLYSLSSVVTVPSSSLGTQTYICNVNHKPSNTKVDKRVEPKSCEVKTDSTDHVKPKETENTKQPSKSCHKPKAIVHTEKVNMMSLTVLGLRMLFAKTVAVNFLLTAKLFFLRAKRSGSGVKQTLNFDLLKLAGDVESNPGPSRGHMTEYKPTVRLATRDDVPRAVRTLAAAFADYPATRHTVDPDRHIERVTELQELFLTRVGLDIGKVWVADDGAAVAVWTTPESVEAGAVFAEIGPRMAELSGSRLAAQQQMEGLLAPHRPKEPAWFLATVGVSPDHQGKGLGSAVVLPGVEAAERAGVPAFLETSAPRNLPFYERLGFTVTADVEVPEGPRTWCMTRKPGA
B2: 22149 (protein)
chain: MALPVTALLLPLALLLHAARPACEVQLLESGGGLIQPGGSLRLSCAASGFTFSSHAMTWVRQAPGKGLEWVSAISGSGDYTHYADSVKGRFTISRDNSKNTVYLQMNSLRAEDSAVYYCAKDEDGGSLLGHRGQGTLVTVSSGTGGGGSGGGGSGGGGSEFDVVMTQSPSSLSASVGDRVTITCMASEDIYIRLAWYQQKPGNAPKLLIYAATSLETGVPSRFSGSGSGTDFTLTISSLQPEDFATYYCQQYWSSPWTFGGGTKVEIKLEGQPKANPTVTLFPPSSEELQANKATLVCLISDFYPGAVTVAWKADGSPVKAGVETTKPSKQSNNKYAASSYLSLTPEQWKSHRSYSCQVTHEGSTVEKTVAPTECSGRADCGFTSESYQQGVLSATILYEILLGKATLYAVLVSALVLMAMVKRKDSRGRAKRSGSGATNFSLLKQAGDVEENPGPTSATMDWIWRILFLVGAATGAHSGPQVQLQESGGGLAQAGGSLRLSCAASGRTFSMGWFRQAPGKEREFVAAITYSGGSPYYASSVRGRFTISRDNAKNTVYLQMNSLKPEDTAVYYCAANPTYGSDWNAENWGQGTQVTVSSGSGGGGSGGGGSGGGGSFEQVQLQESGPGLVKPSQTLSLTCTVSGYSITSDYTWNWIRQPPGNGLEWIGYITYSGSTSYNPSLKSRVLISVDTSKNQVSLKLSSVTAADTAVYYCARLGRRYTMDYWGQGTTVTVSSTRASTKGPSVFPLAPSSKSTSGGTAALGCLVKDYFPEPVTVSWNSGALTSGVHTFPAVLQSSGLYSLSSVVTVPSSSLGTQTYICNVNHKPSNTKVDKRVEPKSCIPEDTFFPSPESSCDVKLVEKSFETDTNLNFQNLSVIGFRILLLKVAGFNLLMTLRLWSSRAKRSGSGVKQTLNFDLLKLAGDVESNPGPSRGHMTEYKPTVRLATRDDVPRAVRTLAAAFADYPATRHTVDPDRHIERVTELQELFLTRVGLDIGKVWVADDGAAVAVWTTPESVEAGAVFAEIGPRMAELSGSRLAAQQQMEGLLAPHRPKEPAWFLATVGVSPDHQGKGLGSAVVLPGVEAAERAGVPAFLETSAPRNLPFYERLGFTVTADVEVPEGPRTWCMTRKPGA
B3: SEQ ID NO: 21975: bispecific SIR: MPL-175 scFv linked to hCD19-Bu12 scFv attached to hTCRα-CSDVP via MYC tag; hTCRβ-KACIAH carries a V5 tag (protein)
chain: MALPVTALLLPLALLLHAARPLEGKPIPNPLLGLDSTGSGEDLKNVFPPEVAVFEPSKAEIAHTQKATLVCLATGFYPDHVELSWWVNGKEVHSGVCTDPQPLKEQPALNDSRYCLSSRLRVSATFWQNPRNHFRCQVQFYGLSENDEWTQDRAKPVTQIVSAEAWGRADCGITSASYHQGVLSATILYEILLGKATLYAVLVSALVLMAMVKRKDSRGRAKRSGSGATNFSLLKQAGDVEENPGPTSMALPVTALLLPLALLLHAARPDQIVLTQSPAIMSASPGEKVTISCSASSSVSYMYWYQQKPGSSPKPWIYRTSNLASGVPARFSGSGSGTSYSLTISNMEAEDAAAYYCQQYHSYPTTFGGGTKLEVKGGGGSGGGGSGGGGSEVQLVESGGGLVQPKGSLKLSCAASGFSFNTYAMNWVRQAPGKGLEWIAHIRSKSNNFATYYADSVKDRFSISRDASENILFLQMNNLKTEDTAMYYCVRQGGDFPMDYWGQGTSVTVSSTREAAAKEIVLTQSPATLSLSPGERATLSCSASSSVSYMHWYQQKPGQAPRLLIYDTSKLASGIPARFSGSGSGTDFTLTISSLEPEDVAVYYCFQGSVYPFTFGQGTKLEIKRGGGGSGGGGSGGGGSQVQLQESGPGLVKPSQTLSLTCTVSGGSISTSGMGVGWIRQHPGKGLEWIGHIWWDDDKRYNPALKSRVTISVDTSKNQFSLKLSSVTAADTAVYYCARMELWSYYFDYWGQGTLVTVSSTREQKLISEEDGSGIQNPDPAVYQLRDSKSSDKSVCLFTDFDSQTNVSQSKDSDVYITDKCVLDMRSMDFKSNSAVAWSNKSDFACANAFNNSIIPEDTFFPSSDVPCDVKLVEKSFETDTNLNFQNLSVIGFRILLLKVAGFNLLMTLRLWSSRAKRSGSGVKQTLNFDLLKLAGDVESNPGPSRGHMTEYKPTVRLATRDDVPRAVRTLAAAFADYPATRHTVDPDRHIERVTELQELFLTRVGLDIGKVWVADDGAAVAVWTTPESVEAGAVFAEIGPRMAELSGSRLAAQQQMEGLLAPHRPKEPAWFLATVGVSPDHQGKGLGSAVVLPGVEAAERAGVPAFLETSAPRNLPFYERLGFTVTADVEVPEGPRTWCMTRKPGA

What was measured:
Type in all cases: cell-based
[1] = system: HEL 92.1.7 cells; assay: JNG assay, co-culture with HEL 92.1.7 cells; details: for NFAT-GFP ASSAY: HEL 92.1.7: co-culture with HEL 92.1.7
Description: Cellular supernatant is collected and assayed for the induction of cytokines (e.g., IL2).
JNG (Jurkat cells expressing EGFP under an NFAT promoter) were infected with lentiviral vectors encoding different single chain and multi-chain SARs by spinfection in the presence of 8 µg/ml of Polybrene® (Sigma, Catalog no. H9268). The Jurkat-NFAT-GFP cells are engineered in such a way that the IL-2 promoter, which carries NFAT binding sites, is cloned upstream of the GFP gene. These cells have been used to study signaling via TCR and CAR. The different SARs were stably expressed in Jurkat NFAT-GFP cells by lentiviral mediated gene transfer, followed by selection with puromycin or blasticidin. No drug selection was used in case the construct lacked an antibiotic resistance gene. The SAR-expressing Jurkat-NFAT-GFP cells were cocultured with the target cells at E:T ratio of approximately 1:2 for approximately 4 hours to 18 hours. When the interaction between SIRs and their target antigen results in activation of the NFAT pathway, GFP expression is induced. […] GFP expression was monitored by FACS analysis. The Jurkat-NFAT-GFP (parental) cells were used as control. The structure of different constructs can be determined based on their names. […] The sequence of the other constructs in the table can be similarly determined from their names and by referring to the different Tables of this disclosure that provide the names and SEQ ID NO of the different modules. Alternatively, the composition and modular architecture of the different SAR constructs can be determined from their sequences by bioinformatics tools, including using nucleic acid and amino acids homology searches. […] The signs +/-, +, 2+ etc. after the name of the cell lines indicate the relative degree of positivity on the Jurkat-NFAT-GFP assay as measured by the % GFP positive cells after culture of the SAR expressing Jurkat-NFAT-GFP cells with that cell line above the % GFP cells observed in parental Jurkat NFAT-GFP cells serving as controls. […]

[2] = system: RAJI cells; assay: JNG assay, co-culture with RAJI cells; details: for NFAT-GFP ASSAY: Raji: JNG cells expressing construct, co-culture with Raji
Procedure, shortened: (§1)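 Read-out is NFAT-driven GFP measured by flow cytometry after ~4–18 h co-culture of SAR-expressing JNG cells with target cells (E:T about 1:2). SARs were introduced by lentiviral spinfection and selected with puromycin or blasticidin when possible; scores (+/- to 5+ ≈ 5–50% GFP+) are relative to parental JNG cells.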

[3] = system: L363 cells; assay: JNG assay, co-culture with L363 cells; details: co-culture with L363
Procedure, shortened: as §1

[4] = system: U266 cells; assay: JNG NFAT-GFP induction on co-culture with U266
[5] = system: Nalm6 cells; assay: JNG assay, co-culture with Nalm6 cells; details: co-culture with Nalm6 cells
Procedure, shortened: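 Read-out is % GFP-positive cells by flow cytometry after ~4–18 h co-culture (E:T ≈1:2) of target lines with SAR-transduced, puromycin/blasticidin-selected JNG cells. Grades +/-, +, 2+…5+ correspond to approximately 5%, 10%, 20%, 30%, 40%, 50% GFP+ over parental JNG controls.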

| Molecule | NFAT-GFP ASSAY: HEL 92.1.7 [1] | NFAT-GFP ASSAY: Raji [2] | NFAT-GFP ASSAY: L363 [3] | NFAT-GFP ASSAY: U266 [4] | GFP induction / activity [5] | GFP induction ([1]; co-culture with MPL expressing HEL 92.1.7 cells) | GFP induction / activity ([2]; co-culture with RAJI cells) |
| --- | --- | --- | --- | --- | --- | --- | --- |
| B1 | + (refer to approximately 5%, 10%, 20%, 30%, 40% and 50% GFP positive cells) | 3+ (refer to approximately 5%, 10%, 20%, 30%, 40% and 50% GFP positive cells) |  |  |  |  |  |
| B2 | +/- (refer to approximately 5%, 10%, 20%, 30%, 40% and 50% GFP positive cells) | 3+ (refer to approximately 5%, 10%, 20%, 30%, 40% and 50% GFP positive cells) | + (refer to approximately 5%, 10%, 20%, 30%, 40% and 50% GFP positive cells) | 3+ (refer to approximately 5%, 10%, 20%, 30%, 40% and 50% GFP positive cells) |  |  |  |
| B3 |  |  |  |  | only weak activity | marginal GFP induction | only weak activity |
